Source: patent publication EP4647441A1 (dated 2025)
One block for each binder: values may come before it.

Key:
[1] = target: HLA-A*11:01 loaded with KRAS-G12D peptide … (human); experiment: cell-based or functional assay
[2] = target: HLA-A*11:01 loaded with KRAS-G12V peptide … (human); experiment: cell-based or functional assay
[3] = target: T1, KRAS G12A peptide on HLA-A*11:01 (human); experiment: killing
T1 peptide: VVVGAAGVGK

[4] = target: T2, KRAS G12S peptide on HLA-A*11:01 (human); experiment: killing
T2 peptide: VVVGASGVGK

[5] = target: T3, KRAS G12C peptide on HLA-A*11:01 (human); experiment: killing
T3 peptide: VVVGACGVGK

[6] = target: T4, KRAS G12D peptide on HLA-A*11:01 (human); experiment: CD69 by flow cytometry; TCR1-transduced Jurkat cells with K562-A*11:01 loaded with peptide at 10^-11 to 10^-6 M; full-length, on cells
T4 peptide: VVVGADGVGK

[7] = target: T5, KRAS G12V peptide on HLA-A*11:01 (human); experiment: as above
T5 peptide: VVVGAVGVGK

- EC50 of CD69 expression of TCR-transduced cells after co-incubation with target cells loaded with graded peptide concentrations [1]: 77 nM
- EC50 of CD69 expression of TCR-transduced cells after co-incubation with target cells loaded with graded peptide concentrations [2]: 45 nM
B1: HLA-A*11:01/KRAS G12V-specific TCR1 (TCR)
TCR alpha: KQEVTQIPAALSVPEGENLVLNCSFTDSAIYNLQWFRQDPGKGLTSLLLIQSSQREQTSGRLNASLDKSSGRSTLYIAASQPGDSATYLCAVNSYSGAGSYQLTFGKGTKLSVIPNIQNPDPAVYQLRDSKSSDKSVCLFTDFDSQTNVSQSKDSDVYITDKTVLDMRSMDFKSNSAVAWSNKSDFACANAFNNSIIPEDTFFPSPESSCDVKLVEKSFETDTNLNFQNLSVIGFRILLLKVAGFNLLMTLRLWSS
TCR beta: EPEVTQTPSHQVTQMGQEVILRCVPISNHLYFYWYRQILGQKVEFLVSFYNNEISEKSEIFDDQFSVERPDGSNFTLKIRSTKLEDSAMYFCASRGGGEQYFGPGTRLTVTEDLKNVFPPEVAVFEPSEAEISHTQKATLVCLATGFYPDHVELSWWVNGKEVHSGVSTDPQPLKEQPALNDSRYCLSSRLRVSATFWQNPRNHFRCQVQFYGLSENDEWTQDRAKPVTQIVSAEAWGRADCGFTSESYQQGVLSATILYEILLGKATLYAVLVSALVLMAMVKRKDSRG

- EC50 of peptide [6]: ~77 nM
- EC50 of peptide [7]: ~45 nM
B2: TCR1 (TCR, V domains shown)
Valpha: KQEVTQIPAALSVPEGENLVLNCSFTDSAIYNLQWFRQDPGKGLTSLLLIQSSQREQTSGRLNASLDKSSGRSTLYIAASQPGDSATYLCAVNSYSGAGSYQLTFGKGTKLSVIP
Vbeta: EPEVTQTPSHQVTQMGQEVILRCVPISNHLYFYWYRQILGQKVEFLVSFYNNEISEKSEIFDDQFSVERPDGSNFTLKIRSTKLEDSAMYFCASRGGGEQYFGPGTRLTVT
- binding result [3]: recognises
- binding result [4]: recognises
- binding result [5]: recognises
